Assay results from PMC10783487.

What was measured:
TbrCan2 E341A [1] = molecular target: T1, TbrCan2 E341A (Thermoanaerobacter brockii subsp. …, UniProt E8URK0 1-437, E341A); experiment: EMSA
T1 sequence: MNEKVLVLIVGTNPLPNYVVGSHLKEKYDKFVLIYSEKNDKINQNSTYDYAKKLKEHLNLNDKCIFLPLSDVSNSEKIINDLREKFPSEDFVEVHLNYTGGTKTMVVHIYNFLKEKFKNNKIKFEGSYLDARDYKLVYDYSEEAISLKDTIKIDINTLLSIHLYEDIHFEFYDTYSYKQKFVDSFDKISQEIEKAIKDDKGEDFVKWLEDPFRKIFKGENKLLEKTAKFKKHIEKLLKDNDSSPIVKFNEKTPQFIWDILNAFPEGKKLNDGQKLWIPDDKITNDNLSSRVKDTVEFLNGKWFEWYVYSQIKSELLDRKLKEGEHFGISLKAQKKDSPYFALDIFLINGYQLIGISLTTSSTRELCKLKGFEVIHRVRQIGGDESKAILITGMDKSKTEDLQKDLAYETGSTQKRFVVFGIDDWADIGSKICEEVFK

TbrCan2 E341A [2] = molecular target: T1, TbrCan2 E341A; experiment: crystal structure 2.4 A
TbrCan2 E341A [3] = molecular target: T1, TbrCan2 E341A; experiment: crystal structure 2.0 A
TbrCan2 E364R = molecular target: T2, TbrCan2 E364R (Thermoanaerobacter brockii subsp. …, UniProt E8URK0 1-437, E364R); experiment: crystal structure
T2 sequence: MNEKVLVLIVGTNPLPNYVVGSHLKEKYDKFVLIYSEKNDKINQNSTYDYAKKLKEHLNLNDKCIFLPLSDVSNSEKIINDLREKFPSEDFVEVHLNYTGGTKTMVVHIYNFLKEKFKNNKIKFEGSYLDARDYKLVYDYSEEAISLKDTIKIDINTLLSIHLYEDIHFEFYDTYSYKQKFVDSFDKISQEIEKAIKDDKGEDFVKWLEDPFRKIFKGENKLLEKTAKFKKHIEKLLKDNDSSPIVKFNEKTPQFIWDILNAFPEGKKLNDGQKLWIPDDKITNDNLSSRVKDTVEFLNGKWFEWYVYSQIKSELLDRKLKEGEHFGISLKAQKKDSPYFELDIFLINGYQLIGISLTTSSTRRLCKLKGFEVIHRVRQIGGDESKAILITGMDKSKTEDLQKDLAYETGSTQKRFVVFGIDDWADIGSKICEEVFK

TbrCan2 E341A [4] = molecular target: T1, TbrCan2 E341A; experiment: crystal structure 2.3 A

Row | Binder | binding result (TbrCan2 E341A [1]) | also measured
1 | AAAAAAAAAAAAAAA (ssRNA) [rA15] | binds | 
2 | UUUUUUUUUUUUUUU (ssRNA) [rU15] | no binding | 
3 | TTTAAA (ssDNA) [TTTAAA (dKJ44)] |  | binding result (TbrCan2 E341A [2]): binds
4 | TTTTTTTTTTTTTTT (ssDNA) [dT15 (dKJ62)] | no binding | 
5 | AAAAAA (ssDNA) [dA6 (dKJ42)] |  | binding result (TbrCan2 E341A [3]): binds
6 | UUUUUUUGGGUUUUUUUUUUUUUUUUUUUU (ssRNA) [U7-G3-U20 RNA (rKJ10)] | no binding | 
7 | TTTTTT (ssDNA) [dT6 (dKJ46)] |  | binding result (TbrCan2 E364R): binds
8 | CCCCCC (ssDNA) [dC6] |  | binding result (TbrCan2 E341A [4]): binds
9 | TTTTTTTGGGTTTTTTTTTTTTTTTTTTTT (ssDNA) [T7-G3-T20 DNA (dKJ72)] | no binding | 
